Test results from US20200297842A1 (published 2020).

Key:
[1] = molecular target: T1, Fc tagged human SIRPγ (ACRO # SIG-H5253) (human, UniProt Q9P1W8 29-360); assay: ELISA, plate-coated Fc tagged human SIRPγ
T1 construct: Bought protein; it includes the transmembrane and cytoplasmic part, which a soluble Fc fusion would not carry; also called Fc tagged human SIRP gamma; recombinant human SIRP gamma; not shown: Fc tag
Protocol: Fc tagged human SIRPγ (ACRO # SIG-H5253) is adsorbed to high-binding microtiter plates at a concentration of 1 μg/ml in phosphate buffered saline (PBS) overnight at 4° C. The coating solution is removed, the wells are washed and then blocked with 75% casein in PBS containing 0.5% Tween 20 (PBST) for 60 minutes at room temperature while shaking. Blocking solution is removed, the wells are washed and incubated for 60 minutes at room temperature while shaking with anti-SIRP mAbs diluted in PBST at a starting concentration of 30 μg/ml and reducing the concentration in 3-fold serial dilutions. Wells are washed three times with PBST and incubated for 60 minutes at room temperature while shaking with an HRP labeled donkey anti-mouse or anti-human secondary antibody (Jackson ImmonResearch Laboratories) diluted 1:10,000 in PBST. The wells are washed and then incubated with peroxidase substrate and the absorbance at 450 nm determined. The apparent affinities were calculated using a non-linear fit model (GraphPad Prism).

[2] = molecular target: T2, human SIRPγ expressed on cells (human, UniProt Q9P1W8 29-387); assay: flow cytometry on Jurkat cells expressing SIRPγ, increasing mAb concentrations (FIG. 4A)
T2 construct: Endogenous SIRPγ on Jurkat T-ALL cells and on human CD3+ T cells; also called SIRPγ expressing Jurkat cells; Human T Cells Expressing SIRPγ
T2 sequence (Q9P1W8 29-387): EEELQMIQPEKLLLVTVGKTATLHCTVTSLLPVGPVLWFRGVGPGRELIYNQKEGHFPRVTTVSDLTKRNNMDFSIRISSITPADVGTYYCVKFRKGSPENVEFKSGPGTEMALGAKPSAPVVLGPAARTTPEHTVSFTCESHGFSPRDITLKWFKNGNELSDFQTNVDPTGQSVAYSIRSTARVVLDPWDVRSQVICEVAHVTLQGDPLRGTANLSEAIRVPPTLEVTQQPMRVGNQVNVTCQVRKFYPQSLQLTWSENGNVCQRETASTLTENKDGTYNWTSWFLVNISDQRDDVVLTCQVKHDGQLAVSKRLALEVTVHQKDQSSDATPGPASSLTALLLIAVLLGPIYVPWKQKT
Protocol: FIG. 4A-FIG. 4B. Binding of SIRP mAbs to Jurkat T cells Expressing SIRPγ. Binding of SIRP1, SIRP2, SIRP3, SIRP4 and SIRP9 to Jurkat T-ALL cells was determined. Cells were incubated with increasing concentrations of antibody FIG. 4A; or 10 μg/ml of the anti-SIRP antibodies for 1 hr; FIG. 4B. Cells were washed and then incubated with Alexaflour 647-labelled secondary antibody for 1 hr. Cells were washed and antibody binding measured using flow cytometry.
Jurkat cells were incubated for 60 min at 37° C., 5% CO₂ with increasing concentrations of the anti-SIRP mAbs diluted in phosphate buffered saline (PBS), pH 7.2. Cells were then washed with PBS and incubated for an additional hour with Alexa Fluor-647 labeled donkey anti-mouse antibody (Jackson ImmunoResearch Laboratories) in PBS. Cells were washed and binding analyzed using a C6 Accuri Flow Cytometer (Becton Dickinson). Alternatively, the cells were incubated for 1 h at 37° C. with the saturating concentration of 10 μg/ml of SIRP mAbs in binding buffer containing 1 mM EDTA (Sigma Aldrich), 1% FBS (Biowest) in PBS (Corning). The cells were then washed and stained for 45 min under the same conditions with donkey anti-mouse IgG fluorescein isothiocyanate (FITC)-linked secondary antibody (Jackson ImmunoResearch Laboratories). The cells were then washed and analyzed by flow cytometry (Attune, Life Technologies).

T1 sequence (Q9P1W8 29-360 limits assumed): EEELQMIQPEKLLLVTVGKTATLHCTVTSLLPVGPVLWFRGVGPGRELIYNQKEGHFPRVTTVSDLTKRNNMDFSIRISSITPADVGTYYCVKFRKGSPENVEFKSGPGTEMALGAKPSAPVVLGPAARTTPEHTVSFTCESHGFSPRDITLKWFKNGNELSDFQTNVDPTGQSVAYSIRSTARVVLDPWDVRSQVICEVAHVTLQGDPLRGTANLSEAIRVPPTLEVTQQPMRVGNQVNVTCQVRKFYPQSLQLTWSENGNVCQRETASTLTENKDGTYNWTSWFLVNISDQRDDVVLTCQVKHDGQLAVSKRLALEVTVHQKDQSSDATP

binding result [1]: no binding (tested: 30 µg/ml) | binding result [2]: no binding
B1: SIRP1 (antibody, mouse IgG1, kappa, V domains shown)
VH: QVQLQQSGAELMKPGASVKISCKATGYSFTKYWIEWVKQRPGHGLEWIGEILPGSVITNYNEKFKGKATFTADTSSNTVYMQLSSLTSEDSAVYYCTKWGLYDSDDGVDYWGQGTTLTVSS
VL: ENVLTQSPAIMSASLGEKVTMSCRASSGVNYMYWYQQKSDASPKLLIYYTSILAPGVPARFSGSGSGNSYSLTISSMEGEDAATYYCQQFTSSPYTFGGGTKLEIKR
notes: Hybridoma-derived mouse mAb
